Data from patent US20060172938A1 (RESEARCH FOUNDATION OF STATE UNIVERSITY OF NEW YORK, published 2006).
Where no end group is shown, it is not given here.

Columns and labels:
[1] = target: T1, Native seprase isolated from LOX cells (human (isolated from the human melanoma …, UniProt Q12884 1-760)); assay: cell-based or functional assay
T1 sequence (looked up): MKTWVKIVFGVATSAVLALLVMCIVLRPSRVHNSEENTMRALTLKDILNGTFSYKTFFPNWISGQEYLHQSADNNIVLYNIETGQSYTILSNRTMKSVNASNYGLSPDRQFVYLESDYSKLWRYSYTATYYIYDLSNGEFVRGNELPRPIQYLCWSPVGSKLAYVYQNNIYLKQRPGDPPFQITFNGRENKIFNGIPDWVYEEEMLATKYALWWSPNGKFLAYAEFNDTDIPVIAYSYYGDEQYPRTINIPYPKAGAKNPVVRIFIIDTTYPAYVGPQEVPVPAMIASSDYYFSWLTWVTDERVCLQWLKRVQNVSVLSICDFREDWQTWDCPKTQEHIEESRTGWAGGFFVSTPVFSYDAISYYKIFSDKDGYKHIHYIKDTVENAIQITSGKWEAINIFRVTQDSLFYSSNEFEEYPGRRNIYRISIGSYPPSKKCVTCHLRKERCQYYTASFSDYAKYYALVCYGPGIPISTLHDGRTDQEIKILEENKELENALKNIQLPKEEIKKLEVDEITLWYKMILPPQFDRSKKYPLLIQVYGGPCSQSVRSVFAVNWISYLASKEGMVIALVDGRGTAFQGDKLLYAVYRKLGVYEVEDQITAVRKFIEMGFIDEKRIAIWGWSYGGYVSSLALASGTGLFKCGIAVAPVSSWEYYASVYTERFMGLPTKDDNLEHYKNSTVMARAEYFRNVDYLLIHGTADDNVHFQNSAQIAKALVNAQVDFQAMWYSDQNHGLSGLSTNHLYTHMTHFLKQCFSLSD

[2] = target: T2, Seprase on seprase-expressing LOX cells (human (human melanoma cell line LOX), UniProt Q12884 1-760); assay: cell-based or functional assay
T2 sequence (looked up): T1 sequence (looked up)

DPP4 = assay: enzyme inhibition kinetics, prolyl peptidase activity of DPP4 with Gly-Pro-pNA, time progress curves (FIG. 1E)
Sequence of DPP4 (P27487 whole entry): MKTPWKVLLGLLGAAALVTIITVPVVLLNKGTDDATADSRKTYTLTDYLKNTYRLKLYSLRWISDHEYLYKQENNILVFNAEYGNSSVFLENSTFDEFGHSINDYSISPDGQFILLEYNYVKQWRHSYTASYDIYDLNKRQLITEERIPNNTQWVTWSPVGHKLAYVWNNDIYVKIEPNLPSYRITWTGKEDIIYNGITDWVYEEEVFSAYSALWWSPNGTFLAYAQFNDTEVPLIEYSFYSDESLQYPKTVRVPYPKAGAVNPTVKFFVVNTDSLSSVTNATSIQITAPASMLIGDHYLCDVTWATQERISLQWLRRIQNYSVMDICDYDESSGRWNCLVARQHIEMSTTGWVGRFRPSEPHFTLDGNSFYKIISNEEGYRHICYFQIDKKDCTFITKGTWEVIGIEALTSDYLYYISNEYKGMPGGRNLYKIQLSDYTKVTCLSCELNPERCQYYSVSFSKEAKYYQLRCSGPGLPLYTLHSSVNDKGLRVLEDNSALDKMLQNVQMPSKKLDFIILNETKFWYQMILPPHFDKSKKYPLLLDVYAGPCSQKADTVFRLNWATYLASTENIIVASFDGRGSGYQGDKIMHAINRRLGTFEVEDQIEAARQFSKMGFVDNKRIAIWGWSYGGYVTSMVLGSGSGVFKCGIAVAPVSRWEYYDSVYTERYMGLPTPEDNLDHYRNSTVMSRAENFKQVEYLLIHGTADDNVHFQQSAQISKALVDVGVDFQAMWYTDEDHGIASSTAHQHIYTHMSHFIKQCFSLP

[3] = target: T1, Native seprase isolated from LOX cells; assay: inhibition kinetic analysis; reference is DPP4
[4] = target: T1, Native seprase isolated from LOX cells; assay: enzyme inhibition kinetics, prolyl dipeptidase activity of seprase with Gly-Pro-pNA, time progress curves (FIG. 1D)
[5] = target: T1, Native seprase isolated from LOX cells; assay: phage display panning and phage ELISA on seprase-coated wells (positive clone: OD405 experiment/OD405 control >3.0); peptide displayed on phage
[6] = target: T2, Seprase on seprase-expressing LOX cells; assay: ELISA and immunofluorescence on seprase-expressing LOX cells
[7] = target: T2, Seprase on seprase-expressing LOX cells; assay: ELISA and immunofluorescence on LOX cells

B1: cyclic peptide CDMWERVSRC (peptide)
peptide: CDMWERVSRC
modifications: also: cyclic peptide, mode of cyclisation not given here
With B1 the “IC50, inhibition of the gelatinolytic activity of seprase (DQ-gelatin assay)” value [1] was less than 10 µM, the “IC50 on the overall collagen degradation by LOX cells (Bodipy FL C5 labelled type I collagen films)” value [2] was roughly 200 µM and the Ki (DPP4) was 40 µM. For the same binder, the “fold more effective against seprase than DPP4” value [3] was 100 times and the Ki [4] was 0.4 µM.

B2: DMWERVSR (peptide)
peptide: DMWERVSR
notes: tested as a synthetic linear peptide in the enzyme assays
B2: binds [5].

B3: DLDYLSKF (peptide)
peptide: DLDYLSKF
notes: as for B2
B3: binds [5].

B4: GGAGDMWERVSRG (peptide)
peptide: GGAGDMWERVSRG
B4: binds [6].

B5: control peptide RKISASEFDRPLR (peptide)
peptide: RKISASEFDRPLR
notes: Control
B5: no binding [7].
